Test results as given in patent US20110311550A1.

What was measured:
Assay in all cases: ELISA, lectin-captured E1E2 lysate, Ab 1 ug/ml
[1] = target: E1E2 complex (H77) with E2 mutation T425A (HCV genotype 1a, isolate H77) (UniProt P27958)
[2] = target: E1E2 complex (H77) with E1 mutation N305A (HCV genotype 1a, isolate H77) (UniProt P27958)
[3] = target: E1E2 complex (H77) with E1 mutation W239A (HCV genotype 1a, isolate H77) (UniProt P27958)
[4] = target: E1E2 complex (H77) with E1 mutation H316A (HCV genotype 1a, isolate H77) (UniProt P27958)
[5] = target: E1E2 complex (H77) with E1 mutation S307A (HCV genotype 1a, isolate H77) (UniProt P27958)
[6] = target: E1E2 complex (H77) with E1 mutation S327A (HCV genotype 1a, isolate H77) (UniProt P27958)
[7] = target: E1E2 complex (H77) with E2 mutation R630A (HCV genotype 1a, isolate H77) (UniProt P27958)
[8] = target: E1E2 complex (H77) with E1 mutation Y276A (HCV genotype 1a, isolate H77) (UniProt P27958)
[9] = target: E1E2 complex (H77) with E1 mutation A274G (HCV genotype 1a, isolate H77) (UniProt P27958)
[10] = target: E1E2 complex (H77) with E1 mutation Y309A (HCV genotype 1a, isolate H77) (UniProt P27958)
[11] = target: E1E2 complex (H77) with E1 mutation N205A (HCV genotype 1a, isolate H77) (UniProt P27958)
[12] = target: E1E2 complex (H77) with E2 mutation F442A (HCV genotype 1a, isolate H77) (UniProt P27958)
[13] = target: E1E2 complex (H77) with E1 mutation S236A (HCV genotype 1a, isolate H77) (UniProt P27958)
[14] = target: E1E2 complex (H77) with E1 mutation L221A (HCV genotype 1a, isolate H77) (UniProt P27958)
[15] = target: E1E2 complex (H77) with E1 mutation G350A (HCV genotype 1a, isolate H77) (UniProt P27958)
[16] = target: E1E2 complex (H77) with E1 mutation R317A (HCV genotype 1a, isolate H77) (UniProt P27958)
[17] = target: E1E2 complex (H77) with E1 mutation R339A (HCV genotype 1a, isolate H77) (UniProt P27958)
[18] = target: E1E2 complex (H77) with E1 mutation S211A (HCV genotype 1a, isolate H77) (UniProt P27958)
[19] = target: E1E2 complex (H77) with E2 mutation P619A (HCV genotype 1a, isolate H77) (UniProt P27958)
[20] = target: E1E2 complex (H77) with E1 mutation P328A (HCV genotype 1a, isolate H77) (UniProt P27958)
[21] = target: E1E2 complex (H77) with E2 mutation L427A (HCV genotype 1a, isolate H77) (UniProt P27958)
[22] = target: E1E2 complex (H77) with E1 mutation N196A/N209A (HCV genotype 1a, isolate H77) (UniProt P27958)
[23] = target: E1E2 complex (H77) with E2 mutation Y618A (HCV genotype 1a, isolate H77) (UniProt P27958)
[24] = target: E1E2 complex (H77) with E1 mutation V246A (HCV genotype 1a, isolate H77) (UniProt P27958)
[25] = target: E1E2 complex (H77) with E1 mutation N196A (HCV genotype 1a, isolate H77) (UniProt P27958)
[26] = target: E1E2 complex (H77) with E1 mutation M322A (HCV genotype 1a, isolate H77) (UniProt P27958)
[27] = target: E1E2 complex (H77) with E2 mutation H617A (HCV genotype 1a, isolate H77) (UniProt P27958)
[28] = target: E1E2 complex (H77) with E2 mutation G635A (HCV genotype 1a, isolate H77) (UniProt P27958)
[29] = target: E1E2 complex (H77) with E2 mutation G634A (HCV genotype 1a, isolate H77) (UniProt P27958)

**Q.** Which results are given for mouse anti-E1 MAb A4 (antibody)?
**A.** Binding relative to wt (%) [1]: 104%; Binding relative to wt (%) [2]: 123%; Binding relative to wt (%) [3]: 103%; Binding relative to wt (%) [4]: 95%; Binding relative to wt (%) [5]: 157%; Binding relative to wt (%) [6]: 85%; Binding relative to wt (%) [7]: 106%; Binding relative to wt (%) [8]: 82%; Binding relative to wt (%) [9]: 53%; Binding relative to wt (%) [10]: 78%; Binding relative to wt (%) [11]: 96%; Binding relative to wt (%) [12]: 90%; Binding relative to wt (%) [13]: 88%; Binding relative to wt (%) [14]: 104%; Binding relative to wt (%) [15]: 79%; Binding relative to wt (%) [16]: 95%; Binding relative to wt (%) [17]: 87%; Binding relative to wt (%) [18]: 106%; Binding relative to wt (%) [19]: 108%; Binding relative to wt (%) [20]: 123%; Binding relative to wt (%) [21]: 102%; Binding relative to wt (%) [22]: 51%; Binding relative to wt (%) [23]: 157%; Binding relative to wt (%) [24]: 96%; Binding relative to wt (%) [25]: 45%; Binding relative to wt (%) [26]: 115%; Binding relative to wt (%) [27]: 140%; Binding relative to wt (%) [28]: 109%; Binding relative to wt (%) [29]: 112%
